Laboratory results from the supplement of paper PMC9112550, “Optimization of the antimicrobial peptide Bac7 by deep mutational scanning” (BMC Biology, 2022).

Test system: Escherichia coli TOP10
Experiment: shrunken log2 fold change of peptide-encoding DNA abundance (4.5 h post-induction vs induction); higher = less antimicrobial activity (less host growth inhibition)
Conditions: time post-induction: 4.5 h; library: site-saturation at positions 5, 18, 19, 20
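Also: peptides expressed intracellularly from a pBAD plasmid library in pooled LB shake-flask culture, induced with 0.3% L-arabinose, DNA abundance read by NGS, three biological replicates, DESeq2 with apeglm shrinkage.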

| Sequence | shrunken log2 fold change |
| --- | --- |
| RRIRDRPPRLPRPRPRPMVVPRP | -0.0202 |
| RRIRWRPPRLPRPRPRPTEAPRP | 0.214 |
| RRIRYRPPRLPRPRPRPNYVPRP | -0.466 |
| RRIRKRPPRLPRPRPRPMLIPRP | 0.0347 |
| RRIRERPPRLPRPRPRPLTAPRP | -0.286 |
| RRIRDRPPRLPRPRPRPCCIPRP | 0.168 |
| RRIRTRPPRLPRPRPRPGGNPRP | -0.264 |
| RRIRQRPPRLPRPRPRPWVKPRP | 0.0219 |
| RRIRQRPPRLPRPRPRPFEPPRP | -0.238 |
| RRIRPRPPRLPRPRPRPNKDPRP | -0.534 |
| RRIRKRPPRLPRPRPRPMFPPRP | -0.187 |
| RRIRRRPPRLPRPRPRPYGFPRP | -0.298 |
| RRIRARPPRLPRPRPRPKIKPRP | 0.0665 |
| RRIRCRPPRLPRPRPRPTDIPRP | -0.623 |
| RRIRGRPPRLPRPRPRPDPQPRP | 0.694 |
| RRIRYRPPRLPRPRPRPDYYPRP | -0.00141 |
| RRIRQRPPRLPRPRPRPYDIPRP | 0.0432 |
| RRIRDRPPRLPRPRPRPLSEPRP | 0.111 |
| RRIRYRPPRLPRPRPRPMMCPRP | 0.168 |
| RRIRNRPPRLPRPRPRPGYHPRP | -0.37 |
| RRIRWRPPRLPRPRPRPLPMPRP | 0.105 |
| RRIRNRPPRLPRPRPRPHFDPRP | -0.356 |
| RRIRFRPPRLPRPRPRPATQPRP | -0.00992 |

| Sequence | shrunken log2 fold change |
| --- | --- |
| RRIRNRPPRLPRPRPRPIITPRP | -0.14 |
| RRIRWRPPRLPRPRPRPRERPRP | 0.859 |
| RRIRQRPPRLPRPRPRPYVSPRP | -0.0823 |
| RRIRIRPPRLPRPRPRPISHPRP | -0.0541 |
| RRIRDRPPRLPRPRPRPAGPPRP | 0.271 |
| RRIRKRPPRLPRPRPRPTWGPRP | 0.317 |
| RRIRNRPPRLPRPRPRPMRFPRP | -0.00968 |
| RRIRSRPPRLPRPRPRPCQCPRP | 0.017 |
| RRIRSRPPRLPRPRPRPYSVPRP | -0.582 |
| RRIRIRPPRLPRPRPRPMPCPRP | 0.00854 |
| RRIRPRPPRLPRPRPRPRADPRP | 0.335 |
| RRIRMRPPRLPRPRPRPRNGPRP | 0.833 |
| RRIRDRPPRLPRPRPRPTGRPRP | 0.134 |
| RRIRCRPPRLPRPRPRPEGFPRP | 0.0977 |
| RRIRWRPPRLPRPRPRPEDVPRP | 0.0895 |
| RRIRTRPPRLPRPRPRPRFSPRP | -0.14 |
| RRIRDRPPRLPRPRPRPRTQPRP | 0.168 |
| RRIRLRPPRLPRPRPRPAWQPRP | 0.202 |
| RRIRMRPPRLPRPRPRPWRHPRP | 0.0256 |
| RRIRFRPPRLPRPRPRPKNHPRP | -0.347 |
| RRIRLRPPRLPRPRPRPMILPRP | -0.677 |
| RRIRLRPPRLPRPRPRPPEIPRP | 0.196 |
| RRIRLRPPRLPRPRPRPHCDPRP | 0.00399 |

| Sequence | shrunken log2 fold change |
| --- | --- |
| RRIRGRPPRLPRPRPRPQCSPRP | -0.0401 |
| RRIRVRPPRLPRPRPRPFCMPRP | -0.537 |
| RRIRSRPPRLPRPRPRPLCIPRP | -0.334 |
| RRIRGRPPRLPRPRPRPIYSPRP | -0.05 |
| RRIRRRPPRLPRPRPRPSAMPRP | 0.378 |
| RRIRDRPPRLPRPRPRPLMKPRP | -0.19 |
| RRIRFRPPRLPRPRPRPVWRPRP | 0.441 |
| RRIRHRPPRLPRPRPRPWCDPRP | -0.559 |
| RRIRQRPPRLPRPRPRPYRCPRP | -0.122 |
| RRIRHRPPRLPRPRPRPASGPRP | 0.368 |
| RRIRCRPPRLPRPRPRPGYIPRP | -0.258 |
| RRIRERPPRLPRPRPRPTFSPRP | -0.216 |
| RRIRVRPPRLPRPRPRPFHDPRP | -0.0143 |
| RRIRLRPPRLPRPRPRPGQFPRP | 0.16 |
| RRIRSRPPRLPRPRPRPLEEPRP | 0.411 |
| RRIRSRPPRLPRPRPRPIQAPRP | -0.0793 |
| RRIRHRPPRLPRPRPRPFEMPRP | -0.505 |
| RRIRFRPPRLPRPRPRPEFFPRP | -0.153 |
| RRIRKRPPRLPRPRPRPSKHPRP | 0.0908 |
| RRIRPRPPRLPRPRPRPKYSPRP | -0.55 |
| RRIRIRPPRLPRPRPRPWNPPRP | -0.106 |
| RRIRLRPPRLPRPRPRPELQPRP | 0.328 |
| RRIRWRPPRLPRPRPRPHIRPRP | 0.00375 |

| Sequence | shrunken log2 fold change |
| --- | --- |
| RRIRKRPPRLPRPRPRPEVMPRP | 0.148 |
| RRIRYRPPRLPRPRPRPKLEPRP | 0.00557 |
| RRIRSRPPRLPRPRPRPGKFPRP | -0.111 |
| RRIRDRPPRLPRPRPRPPQLPRP | 0.143 |
| RRIRCRPPRLPRPRPRPAESPRP | 0.0971 |
| RRIRERPPRLPRPRPRPPAPPRP | 0.569 |
| RRIRYRPPRLPRPRPRPFPGPRP | -0.253 |
| RRIRTRPPRLPRPRPRPCCQPRP | 0.0313 |
| RRIRCRPPRLPRPRPRPHSDPRP | -0.412 |
| RRIRIRPPRLPRPRPRPAYPPRP | -0.829 |
| RRIRQRPPRLPRPRPRPHIRPRP | -0.209 |
| RRIRRRPPRLPRPRPRPSDQPRP | 0.0918 |
| RRIRLRPPRLPRPRPRPSWCPRP | -0.277 |
| RRIRHRPPRLPRPRPRPPQQPRP | 0.6 |
| RRIRQRPPRLPRPRPRPEYKPRP | -0.124 |
| RRIRSRPPRLPRPRPRPYCQPRP | -0.164 |
| RRIRGRPPRLPRPRPRPPVYPRP | 0.352 |
| RRIRIRPPRLPRPRPRPPSWPRP | 0.0866 |
| RRIRSRPPRLPRPRPRPPECPRP | 0.0423 |
| RRIRCRPPRLPRPRPRPCYGPRP | -0.28 |
| RRIRNRPPRLPRPRPRPSYCPRP | -0.267 |
| RRIRYRPPRLPRPRPRPWGLPRP | -0.0143 |
